Target: T1, GST-Pol32 (full length Pol32) (yeast (S. cerevisiae), UniProt P47110 1-350)
T1 sequence (looked up): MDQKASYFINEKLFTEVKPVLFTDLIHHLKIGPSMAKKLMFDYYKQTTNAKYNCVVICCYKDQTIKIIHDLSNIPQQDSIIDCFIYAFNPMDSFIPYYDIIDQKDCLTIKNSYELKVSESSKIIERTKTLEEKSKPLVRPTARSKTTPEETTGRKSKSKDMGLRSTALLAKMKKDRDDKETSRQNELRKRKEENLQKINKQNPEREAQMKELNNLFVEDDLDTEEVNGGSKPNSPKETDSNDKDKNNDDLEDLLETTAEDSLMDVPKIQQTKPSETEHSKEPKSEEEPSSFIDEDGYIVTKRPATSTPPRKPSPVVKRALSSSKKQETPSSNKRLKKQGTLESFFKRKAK
Test: pull-down

B1: Rev7 used in the GST pull-down (natural protein, yeast (S. cerevisiae), UniProt P38927 1-245, looked up)
chain: MNRWVEKWLRVYLKCYINLILFYRNVYPPQSFDYTTYQSFNLPQFVPINRHPALIDYIEELILDVLSKLTHVYRFSICIINKKNDLCIEKYVLDFSELQHVDKDDQIITETEVFDEFRSSLNSLIMHLEKLPKVNDDTITFEAVINAIELELGHKLDRNRRVDSLEEKAEIERDSNWVKCQEDENLPDNNGFQPPKIKLTSLVGSDVGPLIIHQFSEKLISGDDKILNGVYSQYEEGESIFGSLF
binding result: binds

From paper PMC3883112 (Cell reports, 2013)
